In experiment [1] the target is T1, mouse Smoothened (SMO) residues 64-566, crystallization construct (Mus musculus, UniProt P56726). As to the kind of experiment: SPR. In general terms: SPR reads the build-up and loss of mass on a sensor chip optically.
Experiment [2] has as its target T1, mouse Smoothened (SMO) residues 64-566, …. The experiment is described as follows: SPR. This is another data set of the same source.

Like-named read-outs stand apart in the source and are kept apart here.

The Kd is a measure of binding affinity in units of concentration. Read a high Kd as weaker binding.

T1 sequence (P56726 64-566): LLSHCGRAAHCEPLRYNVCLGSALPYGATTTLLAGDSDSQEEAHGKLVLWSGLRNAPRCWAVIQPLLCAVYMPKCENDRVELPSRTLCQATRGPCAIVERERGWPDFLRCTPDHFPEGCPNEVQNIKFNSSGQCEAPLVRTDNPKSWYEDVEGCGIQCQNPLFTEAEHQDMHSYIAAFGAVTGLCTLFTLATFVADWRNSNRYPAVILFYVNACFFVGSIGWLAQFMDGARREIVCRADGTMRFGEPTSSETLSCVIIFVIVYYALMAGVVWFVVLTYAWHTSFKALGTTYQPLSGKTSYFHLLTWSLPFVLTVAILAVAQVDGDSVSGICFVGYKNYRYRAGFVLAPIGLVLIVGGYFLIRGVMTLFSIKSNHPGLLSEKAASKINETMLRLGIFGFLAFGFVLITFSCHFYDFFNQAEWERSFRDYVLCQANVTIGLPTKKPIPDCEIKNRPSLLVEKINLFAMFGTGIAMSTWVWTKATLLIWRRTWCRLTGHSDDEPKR

B1: NbSmo8 with a C-terminal hexahistidine tag (VHH)
VHH: QVQLQESGGGLVQAGGSLRLSCAASGYIFSSYAMGWYRQAPGKEREFVATIGWGTITYYADSVKGRFTISRDNAKNTVYLQMNSLKPEDTAVYYCAAQDLLYYSFPGDHAYWGQGTQVTVSS
B1: the values for the Kd in experiment [1] and in experiment [2] were 117 nM and 168 nM, respectively.

(Values after article PMC6709672 (Nature, 2019).)
